Like-named read-outs stand apart in the source and are kept apart here.
How the values were obtained:
[1] = molecular target: E-cadherin ECD (Mus musculus) (UniProt P09803); details: cited from earlier work
[2] = molecular target: E-cadherin ECD (Mus musculus) (UniProt P09803); details: cited from earlier work; remark: listed apart in the source
[3] = molecular target: W2A E-cadherin/ATH monomer (E-cadherin extracellular domains EC1-EC5, W2A, N20C); assay: FRET or BRET
[4] = molecular target: W2A E-cadherin/ATH monomer (E-cadherin extracellular domains EC1-EC5, W2A, N20C); assay: single molecule AFM force measurement
[5] = molecular target: W2A E-cadherin/ATH monomer (E-cadherin extracellular domains EC1-EC5, W2A, N20C); assay: cross-linking

| FRET efficiency (peak) [3] | bond strength (unbinding force) [4] | cross-linked dimer yield [5] | Substance | Kd [1] | Kd [2] |
| --- | --- | --- | --- | --- | --- |
|  |  |  | E-cadherin ECD (from UniProt P09803) | 0.72 mM | 10 mM |
| 0.74 | 17 pN | 20% | W2A E-cadherin/ATH monomer (E-cadherin extracellular domains EC1-EC5, W2A, N20C) (domain or fragment) |  |  |

From publication PMC4113602
